Target: T1, CD19 antigen (UniProt P15391 20-556, limits assumed)
T1 construct: whole, on cells; the cell lines are human
T1 sequence (looked up): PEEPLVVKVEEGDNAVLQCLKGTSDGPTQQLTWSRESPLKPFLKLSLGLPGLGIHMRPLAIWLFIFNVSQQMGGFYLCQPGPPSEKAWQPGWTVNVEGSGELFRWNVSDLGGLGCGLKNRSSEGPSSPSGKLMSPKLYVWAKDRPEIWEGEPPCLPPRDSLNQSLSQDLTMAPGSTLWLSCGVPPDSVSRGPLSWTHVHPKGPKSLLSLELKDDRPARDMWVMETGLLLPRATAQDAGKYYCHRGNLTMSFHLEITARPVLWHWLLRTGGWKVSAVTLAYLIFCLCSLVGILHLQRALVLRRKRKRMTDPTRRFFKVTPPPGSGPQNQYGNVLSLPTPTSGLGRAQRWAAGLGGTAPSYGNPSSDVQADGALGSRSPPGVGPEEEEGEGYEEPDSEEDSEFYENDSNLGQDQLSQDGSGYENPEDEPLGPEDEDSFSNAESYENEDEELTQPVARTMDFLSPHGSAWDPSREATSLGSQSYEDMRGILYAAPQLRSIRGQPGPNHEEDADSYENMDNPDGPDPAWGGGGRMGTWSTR
Assay: flow cytometry on BV173 cells, detected with FITC-labeled Protein L
Protocol: 1. T cell and BV173 cell experimental group: 5 μg of multi-function proteins TiTE-15, 16 were added to BV173 cells and 3×10\hat{ }5 T cells derived from mononuclear cell-rich white membrane layer of normal human peripheral blood by density gradient centrifugation, and stimulated by OKT3 (50 ng/mL) and IL2 (300 IU/mL) for 14 days, and incubated on ice for 30 min. The supernatant was removed by centrifugation and the cells were re-suspended in 200 μL of PBS. 2 μL of FITC-Labeled recombinant Protein L (ACRO Biosystem, RPL-PF141) was added and incubated on ice for 30 min. The supernatant was removed by centrifugation, washed twice in 500 μL PBS, and re-suspended in 200 μL of PBS.
T cell and BV173 cell negative control group: 3*10E5 T cells respectively (PBMC stimulated with 50 ng/mL OKT3, 300 IU/mL IL2) were mixed with BV173 cells (ATCC) first, and 2 μL APC Mouse anti-Human CD279 (BD, Cat. No. 558694) was added to the cells and incubated on ice for 30 min. The supernatant was removed by centrifugation, and the cells were re-suspended in 200 μL of PBS as a negative control.

B1: multifunctional protein TiTE-15 (other)
chain: DIQMTQTTSSLSASLGDRVTISCRASQDISKYLNWYQQKPDGTVKLLIYHTSRLHSGVPSRFSGSGSGTDYSLTISNLEQEDIATYFCQQGNTLPYTFGGGTKLEITGSTSGSGKPGSGEGSTKGEVKLQESGPGLVAPSQSLSVTCTVSGVSLPDYGVSWIRQPPRKGLEWLGVIWGSETTYYNSALKSRLTIIKDNSKSQVFLKMNSLQTDDTAIYYCAKHYYYGGSYAMDYWGQGTSVTVSSGGGGSITCPPPMSVEHADIWVKSYSLYSRERYICNSGFKRKAGTSSLTECVLNKATNVAHWTTPSLKCIRDPALVHQSGGSGGGGSGGGSGGGGSLQDIQMTQSPSSLSASVGDRVTITCRASQDIRNYLNWYQQKPGKAPKLLIYYTSRLESGVPSRFSGSGSGTDYTLTISSLQPEDFATYYCQQGNTLPWTFGQGTKVEIKGGGGSGGGGSGGGGSEVQLVESGGGLVQPGGSLRLSCAASGYSFTGYTMNWVRQAPGKGLEWVALINPYKGVSTYNQKFKDRFTISVDKSKNTAYLQMNSLRAEDTAVYYCARSGYYGDSDWYFDVWGQGTLVTV
notes: Main peptide chain alone, no co-peptide chain
- binding result: binds
